Data: the supplement of paper PMC6755084

tested on: F1*sub RNA substrate (template-directed ligation); assay: fraction ligated after 30 min (ligated reads / total reads); higher = more ligase activity; sequences stand for … in GAGACCGCAACTGAAAAGTTGT…AGTTCTGCACGTAGAAGCAAAAGGC; settings: 42 °C
Procedure, shortened: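 Oligo-pool templates underwent PCR amplification, T7 transcription and gel purification to yield ribozyme variants. Gel-separated ligated and unligated bands were converted to complementary DNA with barcoded primers and sequenced on a MiSeq, keeping core bases of quality ≥20. The ratio of ligated reads to total reads gave the fraction ligated for every variant.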

In order of falling fraction ligated:
1. TATCACTGTGTAAGACACTTTGGATGGGTTGA [2d131]  0.887
2. TATCACTTGTGTAGACACTTTGGATGGGTTGA [2d181]  0.871
3. TATCTTGTGTAAGACACTTTGGATGGGTTGA [3d742]  0.867
4. TATCACTGCGTAGACACTTTGGATGGGTTGA [3d1330]  0.862
5. TATCACTTGTGTAAACACTTTGGATGGGTTG [3d1753]  0.859
6. TATCACTTGTGAAGACATTTGGATGGGTTGA [3d1723]  0.855
7. TATCACTGTCGTAAGAACTTGGATGGGTTGA [3d1419]  0.847
8. TATCACTGCGTAAGAACTTTGGATGGGTTGA [3d1333]  0.842
9. TATCACTTGTGTAGACACTTGGATGGGTTGA [3d1737]  0.826
10. TATCACTTGTCGTAAACATTTGGATGGGTTG [3d2080]  0.826
11. TATCACTTCGTAAGACACTTTGGATGGGTTGA [2d129]  0.825
12. TATCACTTGTCGTAGCACTTTGGATGGGTTGA [2d223]  0.823
13. TATCACTTGTGTAAGACACTTTGGATGGGTTA [2d192]  0.823
14. TATCACTTGTCTAAGACACTTTGGATGGGTTGA [1d11]  0.818
15. ATCACTTGTGAAGACACTTTGGATGGGTTGA [3d157]  0.815
16. TATCACTTGCTAAGACCTTTGGATGGGTTGA [3d1604]  0.811
17. TATCCTTGTCGTAACACTTTGGATGGGTTGA [3d1043]  0.81
18. TATCACTTGTGTAAGCACTTGGATGGGTTGA [3d1757]  0.805
19. TATCATTGTCGTAAGACCTTGGATGGGTTGA [3d1255]  0.804
20. TATCACTTGGTAAGAACTTTGGATGGGTTGA [3d1589]  0.804
21. TATCCTTGTGTAAGACACTTTGATGGGTTGA [3d1009]  0.799
22. TATCATTGTTAAGACACTTTGGATGGGTTGA [3d1172]  0.798
23. TATCACTGTCGTAAGCATTTGGATGGGTTGA [3d1410]  0.797
24. TATCCTGTCGTAAACACTTTGGATGGGTTGA [3d956]  0.796
25. TATCACTTGCGTAAGACCTTTGATGGGTTGA [3d1668]  0.789
26. ATCACTTTGTAAGACACTTTGGATGGGTTGA [3d124]  0.787
27. TATCATTGTCGTAAAACTTTGGATGGGTTGA [3d1227]  0.787
28. TATCACTTGTTAAGACCTTTGGATGGGTTGA [3d1709]  0.785
29. TATACTTGTCGTAAGACACTTGGATGGGTTGA [2d83]  0.785
30. ATCACTTGTCGTAAGACATTTGGATGGGTTGA [2d17]  0.78
31. TATCACTTGTCGTAAGACACTTGGATGGGTTG [2d282]  0.777
32. TATCACTTTCGTAAGCACTTTGGATGGGTTG [3d1538]  0.764
33. TACACTTGCGTAAGCACTTTGGATGGGTTGA [3d606]  0.764
34. TATCATGTCGTAAGCACTTTGGATGGGTTGA [3d1129]  0.761
35. TATACTTGTCGTAGACATTTGGATGGGTTGA [3d875]  0.759
36. TACACTTGTCGTAAGACACTTTGGATGGGTTG [2d68]  0.758
37. TATCACTTGTCGTAAGACACTTTGATGGGTTG [2d288]  0.755
38. TATCACTGTCGTAAGCACTTTGGATGGGTTA [3d1416]  0.752
39. ATCACTTTCGTAAGACACTTGGATGGGTTGA [3d133]  0.748
40. ATCACTTGCGAAGACACTTTGGATGGGTTGA [3d142]  0.743
41. ATCATTGTCGAAGACACTTTGGATGGGTTGA [3d91]  0.728
42. ACACTTGTCGTAAGACACTTTGGATGGGTTGA [2d2]  0.725
43. TATCACTTGTCTAAGACACTTGATGGGTTGA [3d1879]  0.708
44. ATCACTTTCGAAGACACTTTGGATGGGTTGA [3d126]  0.698
45. TATCACTTTCTAAGACACTTTGGATGGGTTA [3d1491]  0.68
46. TACACTTGTCTAAGACACTTTGGATGGGTTG [3d645]  0.595
47. TTCATTGTCGTAAGACCTTTGGATGGGTTGA [3d327]  0.529
48. TACACTTGTCTAAGACACTTTGGATGGTTGA [3d643]  0.449
49. ACACTTGTGTAAGACACTTTGGATGGGTTGA [3d30]  0.407
50. TCACTTGTCGTAAGAACTTTGGATGGGTTGA [3d14]  0.399
51. TACACTGTCGTAAGACACTTTGGATGGTTGA [3d582]  0.375
52. TATCACTTGTCGTAAGCCTTTGGTGGGTTGA [3d2116]  0.243
53. TATCACTTGTCGTAGACCTTTGGTGGGTTGA [3d2023]  0.234
54. TATACTTGTCGTAGACACTTTGGATGGGTTG [3d882]  0.232
55. TACACTTGTCGTAAGACCTTGGATGGGTTGA [3d700]  0.222
56. ACACTTGTCGTAAACACTTTGGATGGGTTGA [3d34]  0.201
57. TATCACTTGTCGAAGACCTTTGGAGGGTTGA [3d1946]  0.198
58. TACACTTGCTAAGACACTTTGGATGGGTTGA [3d602]  0.196
59. TATCACTTGTCGTAAACACTTTGGATGGTTG [3d2102]  0.17
60. TATCACTTGTCGTAAGCATTTGGATGGTTGA [3d2125]  0.17
61. TATCACTTGTCTAAGAACTTTGGATGGTTGA [3d1861]  0.166
62. TTCACTTGTGTAAGACACTTGGATGGGTTGA [3d395]  0.161
63. TATCACTGTCGTAGACACTTTGGAGGGTTGA [3d1394]  0.13
64. TATACTTTCGTAAGACACTTTGATGGGTTGA [3d806]  0.105
65. TATCACTTGTCGTAGACACTTGGTGGGTTGA [3d2037]  0.105
66. TATCACTGTCGAAGACACTTTGGAGGGTTGA [3d1381]  0.104
67. TATCACTTGTGAAGACACTTTGGTGGGTTGA [3d1726]  0.102
68. TATCACTTTCGTAAGACATTTGGAGGGTTGA [3d1557]  0.0972
69. TATCACTTCGTAAGACACTTTGGTGGGTTGA [3d1322]  0.085
70. TACACTTGTCGTAAGACATTTGGATGGGTTA [3d712]  0.0725
71. TACACTTGCGTAAGACCTTTGGATGGGTTGA [3d608]  0.0714
72. TATCCTTGTCGTAAGACACTTTGATGGTTGA [3d1107]  0.054
73. TATCACTTGTCTAAGACACTTTGAGGGTTGA [3d1887]  0.0527
74. TATCCTTGTCGTAAGCACTTTGGATGGTTGA [3d1072]  0.0464
75. TATCACTGTCGTAAGACACTTTGATGGTTGA [3d1450]  0.0354
76. ATCACTTGCGTAAGACACTTTGGTGGGTTGA [3d151]  0.0301
77. TATCACTTGTGTAAGACACTTTGGTGGTTGA [3d1800]  0.0267
78. TACACTTTCGTAAGACACTTGGATGGGTTGA [3d594]  0.0252
79. TACACTTTCGTAGACACTTTGGATGGGTTGA [3d588]  0.0222
80. TATACTTGTCGTAAACACTTTGGATGGTTGA [3d890]  0.0192
81. TATCACTGTCGTAAGACACTTTGTGGGTTGA [3d1448]  0.0145
82. TATCCTTGTCGTAAGACACTTTGGAGGGTTA [3d1115]  0.00568
83. TATCACTTGTCGTAAGACACTGGAGGGTTGA [3d2234]  0.00473
